Paper PMC9122090 (Structure (London, England : 1993), 2021)

What was measured:
[1] = target: T1, FHOD1-N (human FHOD1 residues 1–339), wild type (human, UniProt Q9Y613 1-339); test: BLI
T1 sequence (looked up): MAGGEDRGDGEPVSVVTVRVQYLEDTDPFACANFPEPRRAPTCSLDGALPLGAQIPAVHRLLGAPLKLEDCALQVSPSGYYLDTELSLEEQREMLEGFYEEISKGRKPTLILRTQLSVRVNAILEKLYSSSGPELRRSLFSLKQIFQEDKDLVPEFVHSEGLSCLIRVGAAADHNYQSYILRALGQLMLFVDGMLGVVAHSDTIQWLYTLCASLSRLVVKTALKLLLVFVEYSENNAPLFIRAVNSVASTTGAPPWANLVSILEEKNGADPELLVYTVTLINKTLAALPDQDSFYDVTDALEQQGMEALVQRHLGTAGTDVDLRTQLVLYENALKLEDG

[2] = target: T1, FHOD1-N (human FHOD1 residues 1–339), …; test: SEC
[3] = target: T1, FHOD1-N (human FHOD1 residues 1–339), …; test: SEC; remark: listed apart in the source
[4] = target: T2, Nes2G SR11–12-FHOD1-N complex (human, UniProt Q9Y613 1-339; Q8WXH0 1425-1649); test: SEC
T2 sequence (looked up) 1: T1 sequence (looked up)
T2 sequence (looked up) 2: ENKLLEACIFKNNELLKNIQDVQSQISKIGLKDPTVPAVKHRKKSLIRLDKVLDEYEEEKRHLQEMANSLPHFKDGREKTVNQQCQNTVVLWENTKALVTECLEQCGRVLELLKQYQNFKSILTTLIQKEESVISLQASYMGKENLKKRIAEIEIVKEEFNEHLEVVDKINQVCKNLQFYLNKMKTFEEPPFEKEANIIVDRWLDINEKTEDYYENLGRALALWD

B1: N-terminally AVI-tagged, biotinylated Nes1G SR17–18 (residues 1976–2200) (domain or fragment, human, UniProt Q8NF91 1976-2200, looked up)
chain: LAVLKKAFQDQKEELLKSIEDIEERTDKERLKEPTRQALQQRLRVFNQLEDELNSHEHELCWLKDKAKQIAQKDVAFAPEVDREINRLEVTWDDTKRLIHENQGQCCGLIDLMREYQNLKSAVSKVLENASSVIVTRTTIKDQEDLKWAFSKHETAKNKMNYKQKDLDNFTSKGKHLLSELKKIHSSDFSLVKTDMESTVDKWLDVSEKLEENMDRLRVSLSIWD
modifications: biotin on the AVI sequence
- Kd [1]: 85 nM

B2: Nes2G SR11–12 (human nesprin-2 giant residues 1425–1649) (domain or fragment, UniProt Q8WXH0-1 1425-1649, looked up)
chain: T2 sequence (looked up) 2
- binding result [2]: binds

B3: Nes1G SR18 (human nesprin-1 giant residues 2076–2200) (domain or fragment, UniProt Q8NF91-1 2076-2200, looked up)
chain: ENQGQCCGLIDLMREYQNLKSAVSKVLENASSVIVTRTTIKDQEDLKWAFSKHETAKNKMNYKQKDLDNFTSKGKHLLSELKKIHSSDFSLVKTDMESTVDKWLDVSEKLEENMDRLRVSLSIWD
- binding result [2]: binds

B4: Nes1G SR17–18 (human nesprin-1 giant residues 1976–2200) (domain or fragment, UniProt Q8NF91-1 1976-2200, looked up)
chain: B1 chain
- binding result [2]: binds

B5: N-terminally AVI-tagged, biotinylated Nes1G SR18 (residues 2076–2200) (domain or fragment, human, UniProt Q8NF91 2076-2200, looked up)
chain: B3 chain
modifications: biotin on the AVI sequence
- binding result [1]: binds

B6: N-terminally AVI-tagged, biotinylated Nes2G SR11–12 (residues 1425–1649) (domain or fragment, human, UniProt Q8WXH0 1425-1649, looked up)
chain: T2 sequence (looked up) 2
modifications: biotin on the AVI sequence
- Kd [1]: 375 nM

B7: FHOD1 DAD domain (residues 1052–1164), released from MBP-DAD by 3C protease (domain or fragment, human, UniProt Q9Y613 1052-1164, looked up)
chain: SMKSLLTSRPEDTTHNRRSRGMVQSSSPIMPTVGPSTASPEEPPGSSLPSDTSDEIMDLLVQSVTKSSPRALAARERKRSRGNRKSLRRTLKSGLGDDLVQALGLSKGPGLEV
- binding result [3]: binds
- binding result [4]: binds
